From article PMC11228480 (Proceedings of the National Academy of Sciences of the …, 2024)

B1: GST-tagged S100A1 (natural protein)
chain: MGSELESAMETLINVFHAHSGQEGDKYKLSKKELKDLLQTELSGFLDVQKDADAVDKVMKELDENGDGEVDFKEYVVLVAALTVACNNFFWETS
B2: recombinant mouse S100A1 (untagged) (natural protein)
chain: B1 chain

Key:
[1] = biological target: T1, ryanodine receptor type 1 (RyR1), endogenous, purified from mouse skeletal muscle (mouse, UniProt E9PZQ0 1-5035); test: pull-down
[2] = biological target: T1, ryanodine receptor type 1 (RyR1), …; test: cryo-EM structure
cryo-EM structure = biological target: the molecule itself; test: cryo-EM structure

T1 sequence (E9PZQ0 whole entry): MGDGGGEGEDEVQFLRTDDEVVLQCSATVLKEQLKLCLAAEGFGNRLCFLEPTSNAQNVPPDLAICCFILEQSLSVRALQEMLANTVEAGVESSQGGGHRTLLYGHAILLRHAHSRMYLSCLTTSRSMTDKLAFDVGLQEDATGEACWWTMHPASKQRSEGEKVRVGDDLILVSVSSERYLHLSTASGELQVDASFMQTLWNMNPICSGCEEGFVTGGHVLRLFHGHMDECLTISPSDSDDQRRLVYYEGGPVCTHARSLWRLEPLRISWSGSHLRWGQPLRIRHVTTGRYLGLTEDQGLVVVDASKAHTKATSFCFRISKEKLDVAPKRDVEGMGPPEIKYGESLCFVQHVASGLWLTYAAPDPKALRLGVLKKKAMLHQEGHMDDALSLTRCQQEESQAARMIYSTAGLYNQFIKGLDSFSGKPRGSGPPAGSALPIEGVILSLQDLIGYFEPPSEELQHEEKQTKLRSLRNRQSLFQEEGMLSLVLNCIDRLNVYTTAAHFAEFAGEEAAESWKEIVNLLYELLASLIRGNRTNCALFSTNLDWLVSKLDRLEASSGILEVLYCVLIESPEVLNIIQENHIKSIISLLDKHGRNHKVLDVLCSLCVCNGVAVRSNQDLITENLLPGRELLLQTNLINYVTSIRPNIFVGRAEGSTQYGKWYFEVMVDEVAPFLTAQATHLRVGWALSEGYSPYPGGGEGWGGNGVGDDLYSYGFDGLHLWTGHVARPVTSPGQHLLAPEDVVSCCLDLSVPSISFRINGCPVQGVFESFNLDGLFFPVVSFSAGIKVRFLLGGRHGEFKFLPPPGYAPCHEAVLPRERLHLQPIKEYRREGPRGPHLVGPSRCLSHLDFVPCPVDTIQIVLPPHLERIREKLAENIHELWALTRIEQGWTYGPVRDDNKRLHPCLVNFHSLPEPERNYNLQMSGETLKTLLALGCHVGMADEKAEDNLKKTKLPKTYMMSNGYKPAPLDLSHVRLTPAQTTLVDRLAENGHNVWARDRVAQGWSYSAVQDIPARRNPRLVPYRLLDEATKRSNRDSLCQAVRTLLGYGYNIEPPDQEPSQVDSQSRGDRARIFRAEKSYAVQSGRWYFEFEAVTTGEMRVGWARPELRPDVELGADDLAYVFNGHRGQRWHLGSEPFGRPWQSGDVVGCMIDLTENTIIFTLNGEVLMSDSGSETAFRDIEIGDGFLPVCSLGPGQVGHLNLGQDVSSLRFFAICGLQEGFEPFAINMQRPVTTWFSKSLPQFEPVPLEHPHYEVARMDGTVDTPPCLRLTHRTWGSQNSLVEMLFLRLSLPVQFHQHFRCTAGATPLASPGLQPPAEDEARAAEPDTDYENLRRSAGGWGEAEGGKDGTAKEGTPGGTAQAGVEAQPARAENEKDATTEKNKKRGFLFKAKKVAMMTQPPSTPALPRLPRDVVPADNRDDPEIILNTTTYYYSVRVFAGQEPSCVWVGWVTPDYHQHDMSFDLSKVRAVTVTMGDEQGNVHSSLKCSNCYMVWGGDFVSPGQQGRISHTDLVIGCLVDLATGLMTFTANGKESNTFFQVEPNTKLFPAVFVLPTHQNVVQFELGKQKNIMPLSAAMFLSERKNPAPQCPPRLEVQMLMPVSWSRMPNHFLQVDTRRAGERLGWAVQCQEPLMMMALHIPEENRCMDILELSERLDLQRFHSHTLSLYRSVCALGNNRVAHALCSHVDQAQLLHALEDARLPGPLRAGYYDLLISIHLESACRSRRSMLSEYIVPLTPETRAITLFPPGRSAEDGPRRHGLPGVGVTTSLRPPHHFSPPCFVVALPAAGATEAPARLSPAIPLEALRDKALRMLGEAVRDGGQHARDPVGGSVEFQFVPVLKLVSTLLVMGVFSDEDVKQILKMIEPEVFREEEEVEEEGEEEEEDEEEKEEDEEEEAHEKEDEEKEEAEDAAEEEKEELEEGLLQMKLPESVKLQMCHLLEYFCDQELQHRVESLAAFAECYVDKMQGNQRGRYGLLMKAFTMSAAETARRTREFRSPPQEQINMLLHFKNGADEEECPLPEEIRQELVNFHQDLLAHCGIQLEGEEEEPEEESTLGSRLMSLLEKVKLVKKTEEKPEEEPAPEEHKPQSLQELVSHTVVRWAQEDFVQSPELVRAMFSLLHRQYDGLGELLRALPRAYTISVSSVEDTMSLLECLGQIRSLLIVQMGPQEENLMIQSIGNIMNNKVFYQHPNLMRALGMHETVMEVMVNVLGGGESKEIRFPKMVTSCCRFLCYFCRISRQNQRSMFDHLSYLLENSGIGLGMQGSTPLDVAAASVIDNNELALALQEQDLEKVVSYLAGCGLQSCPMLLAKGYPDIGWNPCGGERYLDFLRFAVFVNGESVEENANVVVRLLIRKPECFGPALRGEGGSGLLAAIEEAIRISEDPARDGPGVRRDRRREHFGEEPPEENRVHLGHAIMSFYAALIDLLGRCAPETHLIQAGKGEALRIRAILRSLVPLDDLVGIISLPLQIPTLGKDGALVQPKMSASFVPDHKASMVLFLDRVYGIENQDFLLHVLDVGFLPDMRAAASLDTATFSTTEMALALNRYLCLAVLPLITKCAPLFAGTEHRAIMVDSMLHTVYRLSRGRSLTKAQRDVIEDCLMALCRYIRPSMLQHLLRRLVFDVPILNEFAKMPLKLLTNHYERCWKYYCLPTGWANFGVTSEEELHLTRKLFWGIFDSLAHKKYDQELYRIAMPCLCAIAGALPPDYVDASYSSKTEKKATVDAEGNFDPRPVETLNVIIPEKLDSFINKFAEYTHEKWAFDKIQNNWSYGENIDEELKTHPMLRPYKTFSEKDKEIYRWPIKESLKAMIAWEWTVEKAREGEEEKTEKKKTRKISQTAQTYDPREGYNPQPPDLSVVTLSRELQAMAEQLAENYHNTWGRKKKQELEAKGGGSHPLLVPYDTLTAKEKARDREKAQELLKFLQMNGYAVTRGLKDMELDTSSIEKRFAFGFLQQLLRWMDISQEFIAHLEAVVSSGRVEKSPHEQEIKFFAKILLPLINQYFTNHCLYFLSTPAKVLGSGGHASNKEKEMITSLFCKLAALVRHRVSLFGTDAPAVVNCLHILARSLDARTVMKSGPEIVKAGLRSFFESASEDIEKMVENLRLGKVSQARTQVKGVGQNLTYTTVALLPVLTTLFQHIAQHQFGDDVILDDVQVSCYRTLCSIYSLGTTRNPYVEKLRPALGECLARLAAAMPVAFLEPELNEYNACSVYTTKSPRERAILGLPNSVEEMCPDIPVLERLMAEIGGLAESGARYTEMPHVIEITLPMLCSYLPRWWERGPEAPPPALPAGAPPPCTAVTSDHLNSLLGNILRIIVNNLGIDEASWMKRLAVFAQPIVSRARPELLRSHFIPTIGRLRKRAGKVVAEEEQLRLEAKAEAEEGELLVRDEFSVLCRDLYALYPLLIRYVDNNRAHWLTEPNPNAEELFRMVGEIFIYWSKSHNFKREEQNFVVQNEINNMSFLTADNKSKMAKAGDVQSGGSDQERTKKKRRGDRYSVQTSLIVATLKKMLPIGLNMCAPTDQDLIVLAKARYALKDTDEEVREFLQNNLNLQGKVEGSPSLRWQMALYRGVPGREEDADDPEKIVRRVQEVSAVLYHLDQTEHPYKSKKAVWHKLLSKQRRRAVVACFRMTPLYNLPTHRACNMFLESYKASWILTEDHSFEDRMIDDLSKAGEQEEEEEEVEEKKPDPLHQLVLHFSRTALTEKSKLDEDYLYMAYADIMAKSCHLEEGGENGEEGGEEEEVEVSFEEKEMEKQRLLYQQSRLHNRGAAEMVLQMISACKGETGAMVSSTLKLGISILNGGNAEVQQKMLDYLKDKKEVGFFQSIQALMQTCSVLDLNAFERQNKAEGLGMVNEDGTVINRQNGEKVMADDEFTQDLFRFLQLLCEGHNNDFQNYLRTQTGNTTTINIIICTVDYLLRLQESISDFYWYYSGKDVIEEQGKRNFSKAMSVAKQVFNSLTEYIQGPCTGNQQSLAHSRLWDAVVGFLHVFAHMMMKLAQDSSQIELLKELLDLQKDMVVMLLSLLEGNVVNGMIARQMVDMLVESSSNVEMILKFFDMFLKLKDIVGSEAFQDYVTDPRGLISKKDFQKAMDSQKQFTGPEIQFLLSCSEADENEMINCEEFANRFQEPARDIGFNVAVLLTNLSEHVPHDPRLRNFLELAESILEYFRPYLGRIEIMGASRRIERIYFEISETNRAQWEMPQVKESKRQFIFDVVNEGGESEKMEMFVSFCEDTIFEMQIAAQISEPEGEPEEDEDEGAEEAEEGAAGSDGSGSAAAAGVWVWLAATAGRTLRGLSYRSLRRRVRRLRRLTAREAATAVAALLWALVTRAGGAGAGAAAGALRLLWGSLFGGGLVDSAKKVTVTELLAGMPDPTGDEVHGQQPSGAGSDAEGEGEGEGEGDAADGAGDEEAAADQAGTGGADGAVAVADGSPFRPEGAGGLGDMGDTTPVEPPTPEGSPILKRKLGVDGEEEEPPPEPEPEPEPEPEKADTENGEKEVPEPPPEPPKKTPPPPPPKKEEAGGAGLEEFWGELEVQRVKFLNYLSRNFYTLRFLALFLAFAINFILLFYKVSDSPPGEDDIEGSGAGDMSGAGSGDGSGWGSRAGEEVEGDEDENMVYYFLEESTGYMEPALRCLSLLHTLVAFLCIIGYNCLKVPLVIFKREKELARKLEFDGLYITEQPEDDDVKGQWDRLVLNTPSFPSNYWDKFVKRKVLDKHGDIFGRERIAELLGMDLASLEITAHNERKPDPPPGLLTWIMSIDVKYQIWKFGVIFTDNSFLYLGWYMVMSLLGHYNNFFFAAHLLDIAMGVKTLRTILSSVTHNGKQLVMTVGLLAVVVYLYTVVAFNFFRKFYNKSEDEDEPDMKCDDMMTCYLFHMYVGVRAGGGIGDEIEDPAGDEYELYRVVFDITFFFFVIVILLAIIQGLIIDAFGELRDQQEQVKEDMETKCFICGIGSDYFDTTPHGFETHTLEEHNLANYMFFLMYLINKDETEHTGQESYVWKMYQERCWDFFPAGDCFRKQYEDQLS

Binder	binding result [1]	binding result [2]	stoichiometry N (cryo-EM structure)
B1	binds		
B2		binds	2
